From the RNAGym collection of RNA variant scans (doi:10.7554/elife.80360)

B1: HDV Ribozyme (parent)
chain: GGCCGGCAUGGUCCCAGCCUCCUCGCUGGCGCCGGCUGGGCAACAUUCCGAGGGGACCGUCCCCUCGGUAAUGGCGAAUGGGACCCA

Variants of: B1
Assay: self-cleavage, relative activity (ratio to wild type); higher = more cleavage; co-transcriptional

Question: Which self-cleavage does the source give for GGCCGGCAUGGUCCGAGCCUCCUCGCUGGCGCCUGCUGGGCAACAUUCCGAGGGGACCGUCCCCUCGGUAAUGGCGAAUGGGACCCA here?
Answer: 0.19

Question: Which self-cleavage does the source give for GGCCGGCAUGGUCCCAGCCUCCUCGCUGGCGCCGGCUGGGCAACAUUCCGAGGGGACCGUCCCCUCGGUAAGGGCGAGUGGGACCCA here?
Answer: 0.426

Question: With GGCCGGCAUGGUCCCAGCCUCCUCGCUGGCGCCGGCUGGGUAACGUUCCGAGGGGACCGUCCCCUCGGUAAUGGCGAAUGGGACCCA as the variant, how does the self-cleavage read?
Answer: 0.575

Question: For GGACCGCAUGGUCCCAGCCUCCUCGCUGGCGCCGGCUGGGCAACAUUCCGAGGGGACCGUCCCCUCGGUAAUGGCGAAUGGGACCCA, which self-cleavage is on record?
Answer: 0.0339

Question: Which self-cleavage does the source give for GGCCGGCAUGGUCCCAGCGUCCUCGCUGGCGCCGGCUGGGCAAAAUUCCGAGGGGACCGUCCCCUCGGUAAUGGCGAAUGGGACCCA here?
Answer: 0

Question: For GGCCGGCAUGGUCCCAGCCUCCUCGCUGGCGCCGGCUGGGCAACAUUCCGAGGGGACCGACGCCUCGGUAAUGGCGAAUGGGACCCA, which self-cleavage is on record?
Answer: 0.997

Question: With GGCCGGCAUGAUCCCAGCCUCCUCGCUGGCGCCGGCUGGGCAACAUUCCGAGGGGACCGUCCCCUCGGUAAUGGCGAAUGAGACCCA as the variant, how does the self-cleavage read?
Answer: 0.0639

Question: For GGCCGGCAUGGUCCCAGCCUCCUCGCUGGCGCCGGCUGGGCAACAUUCCGAGGUGACCGUCCCCUCGGUAAUGGCGACUGGGACCCA, which self-cleavage is on record?
Answer: 0.158

Question: For GGCCGGCAUGGUCCCAGCCUCCUCGCUGGCCCCGGCUGGGCAACAUUCCGAGGGGACCGUCCCCUGGGUAAUGGCGAAUGGGACCCA, which self-cleavage is on record?
Answer: 0.443

Question: With GGCCGGCAUGGUCCCAGCCUCCUCGCUGGCGCCGGCUCGGUAACAUUCCGAGGGGACCGUCCCCUCGGUAAUGGCGAAUGGGACCCA as the variant, how does the self-cleavage read?
Answer: 1.08

Question: Which self-cleavage does the source give for GGCCGGCAUGGUCCCAGUCUCCUCGCUGGCGCCGGCUGGGCAACAUUCCGAGGGGACCGUCCCCUCGGUAAUGGCGAAUGGGACCCU here?
Answer: 0.853

Question: With GGCCGGCAUGGUCCCAGCCUCCUCGCUGGCGCCGGCUGGGCAACAUUCCGAGAGGACCGUCCCCUCGGUAAUGGCGAAUAGGACCCA as the variant, how does the self-cleavage read?
Answer: 0.218

Question: With GGCCGGCAUGGUCCCAGCCUCCUCCCUGGUGCCGGCUGGGCAACAUUCCGAGGGGACCGUCCCCUCGGUAAUGGCGAAUGGGACCCA as the variant, how does the self-cleavage read?
Answer: 0.0326

Question: Which self-cleavage does the source give for GGCCGGCAUGGGCCCAGCCUCCUCGCUGGCGCCGGCUGGGCAAUAUUCCGAGGGGACCGUCCCCUCGGUAAUGGCGAAUGGGACCCA here?
Answer: 0.598

Question: With GGCCGGCAUGGUCCCAGCCUCCUCGCUGGCGCCGGCUGGGCAACAUACCGACGGGACCGUCCCCUCGGUAAUGGCGAAUGGGACCCA as the variant, how does the self-cleavage read?
Answer: 0.978

Question: For GGCCGGCAGGGUCCCAGCCUCCUCGCUGGCGCCGGCUGGGCAACAUUCCGAGGGGAUCGUCCCCUCGGUAAUGGCGAAUGGGACCCA, which self-cleavage is on record?
Answer: 1.03

Question: With GGCCCGCAUGAUCCCAGCCUCCUCGCUGGCGCCGGCUGGGCAACAUUCCGAGGGGACCGUCCCCUCGGUAAUGGCGAAUGGGACCCA as the variant, how does the self-cleavage read?
Answer: 0.0449

Question: For UGCCGGCAUGGUCCCAGCCUCCUCGCUGGCGCCGGCUGGGCAACAUUCCGAGGGGACCGUCCCCUCGGUAAUGGCGACUGGGACCCA, which self-cleavage is on record?
Answer: 0.293

Question: Which self-cleavage does the source give for GGCCGGCAUGGGCCCAGCCUCCUCGCUGGCGCCGGCUCGGCAACAUUCCGAGGGGACCGUCCCCUCGGUAAUGGCGAAUGGGACCCA here?
Answer: 0.178

Question: Which self-cleavage does the source give for GGCCGGCAUGGUCCCAGCCUCCUCGCUGGCGCUGGCUGGGCAACAUUCAGAGGGGACCGUCCCCUCGGUAAUGGCGAAUGGGACCCA here?
Answer: 0.946

Question: Which self-cleavage does the source give for GGCCGGCAUGGUCCCAGCCUCCUCGCUGGCGUCGUCUGGGCAACAUUCCGAGGGGACCGUCCCCUCGGUAAUGGCGAAUGGGACCCA here?
Answer: 0.376

Question: Which self-cleavage does the source give for GUCCGGCAUGGUCCCAGCCUCCUCGGUGGCGCCGGCUGGGCAACAUUCCGAGGGGACCGUCCCCUCGGUAAUGGCGAAUGGGACCCA here?
Answer: 0.0627

Question: For GGCCGGCAUGGUCCGAGCCUCCUCGCUGGCGCCGGCUGGGCAACAUUCCGAGGGGACCGUCCCCUCGGCAAUGGCGAAUGGGACCCA, which self-cleavage is on record?
Answer: 0.65

Question: With GGCCGACAUGGUCCCAGCCUCCUCGCUGGCGCCGGCUGGGCAACAUUCCGAGGGGACCGUCCCCUCGGAAAUGGCGAAUGGGACCCA as the variant, how does the self-cleavage read?
Answer: 0.525

Question: With GGCCGGCAUGGUCCCAGCCUCCUCGUUGGCGCCGGCUGGGCAACAUUCCGAGGGGACCGUCCCCUCGAUAAUGGCGAAUGGGACCCA as the variant, how does the self-cleavage read?
Answer: 1.02

Question: With GGCCGGCAUGGUCCCAGCCACCUCGCUGGCGCCGGCUGGGCAACAUUCCGAGGGGACCGUCCCCUCGGUAAUAGCGAAUGGGACCCA as the variant, how does the self-cleavage read?
Answer: 0.0791

Question: For GGCCGGCAUGGUCCCAGCCUCCUCGCUGGCGCCGGCUGGGCAACAUUCCGAGGGGACCGUCCCCUCGGUAAUGGCGUAUGGGCCCCA, which self-cleavage is on record?
Answer: 0.231

Question: With GGCCGGCAUGGUCCCAGCCUCCUCGCUGGCGCCGGCUGGGCAACAUUUCAAGGGGACCGUCCCCUCGGUAAUGGCGAAUGGGACCCA as the variant, how does the self-cleavage read?
Answer: 0.888

Question: With GGCCGGCAUGGUCCCAGCCUCCUCGCUGGCGCCGGCUCGGCGACAUUCCGAGGGGACCGUCCCCUCGGUAAUGGCGAAUGGGACCCA as the variant, how does the self-cleavage read?
Answer: 0.0449

Question: For GGCCGGCAUGGUCCCUGCCUCCUCGCUAGCGCCGGCUGGGCAACAUUCCGAGGGGACCGUCCCCUCGGUAAUGGCGAAUGGGACCCA, which self-cleavage is on record?
Answer: 0.0475

Question: With GGCCGGCAUGCUCCCAGCCUCCUCGCUGGCGCCGGCUGGGCAACAUUCCGAGGGGACCGUCCCCUCGGUAGUGGCGAAUGGGACCCA as the variant, how does the self-cleavage read?
Answer: 0.277

Question: With GGUCGGCAUGGUCCCAGCCUCCUCGCUGGCGCCGGCUGGGCGACAUUCCGAGGGGACCGUCCCCUCGGUAAUGGCGAAUGGGACCCA as the variant, how does the self-cleavage read?
Answer: 0.483
